Assays:
[1] = molecular target: recombinant PfPKG quintuple mutant STmut (Plasmodium falciparum) (UniProt Q8I719)
[2] = molecular target: recombinant wild-type PfPKG (Plasmodium falciparum) (UniProt Q8I719)

PKAtide (peptide)
PKAtide concentration at half maximal velocity (Km), ParM-ADP real-time fluorescence kinase assay [1]: 13 µM
PKAtide concentration at half maximal velocity (Km), ParM-ADP real-time fluorescence kinase assay [2]: 10 µM

Source: publication PMC11236177
